This is an account of results in patent US8669352 (PANGENETICS B V, dated 2014).

Assay [1] deals with T1, human CD40 (human, UniProt P25942 21-277).
T1 construct: whole, on cells; also called huCD40; CD40 expressed on JY cells
The assay is described as follows: flow cytometry competition on JY cells against 1 µg/mL PE-labelled ch5D12 (PG100) or PG102; range told of both antibodies. As for the experimental part:
(§1) Competitive Inhibition of ch5D12 (PG100)-PE and PG102-PE Binding to JY Cells Expressing Human CD40 Using Unlabelled Anti-CD40 Antibody Materials and Methods JY cells (Epstein—Barr virus-transformed human B lymphoblastoid cell line) were grown in Iscove's Modified Dulbecco's Medium (IMDM) containing 10% heat-inactivated foetal calf serum (FCS), 2 mM L-glutamine and 50 μg/mL gentamycin in an air-humidified atmosphere containing 5% CO_2, at 37° C. Cells were harvested on the day of flow cytometric measurements.
(§2) Unlabelled ch5D12 (PG100) (Batch 4) and PG102 (Batch 2) antibodies were used in these experiments. Both antibodies were also used in PE-labelled form for direct determination of binding to JY cells by flow cytometry. Antibodies were custom-labelled with PE by AbD Serotec (Oxford, UK). For each FACS analysis the following protocol was used. JY cells were harvested from cell culture and counted. […] Cells were washed followed by flow cytometric analysis in which the MFI at every concentration was determined using a FACScan flow cyometer (Becton & Dickinson). Five thousand events/sample were measured and analyzed using CellQuest® software (Becton & Dickinson).
For orientation: Flow cytometry measures light scatter and fluorescence of single cells or particles in a stream.

Assay [2] has as its target T2, huCD40-muIg (Ancell, catalogue number 504-020) (human, UniProt P25942 21-193).
T2 construct: also called CD40-Fc; human CD40-Fc; not shown: murine Ig part
Kind of assay: ELISA on coated human CD40-Fc; half-maximal binding concentration. As for the experimental part:
(§3) Plates were washed 3 times with 200 μL/well wash buffer (0.05% Tween-20 in PBS). Subsequently, plates were blocked with 200 μL/well blocking buffer (5% BSA Fraction V [Roche, catalogue number 735094] in wash buffer) and incubated for 1 h at 37° C. (humid environment). Plates were washed 3 times with wash buffer. Test antibodies (ch5D12 (PG100), PG102, and negative control chimaeric anti-huCD86 antibody chFUN-1) were diluted in the range 0-1200 ng/mL in blocking buffer and transferred to assay plates in a final volume of 100 μL/well, followed by incubation for 1 h at 37° C. (humid environment). Plates were washed 3 times with wash buffer followed by addition of 100 μl/well goat anti-human kappa-AP detection antibody (Southern Biotech Associates catalogue number 2060-0) diluted 1:1000 in blocking buffer. Plates were incubated for 1 h at 37° C. in a humid environment before washing 3 times with wash buffer and a further single wash with PBS.

Assay [3] has as its target T3, Recombinant human CD40 extracellular domain fused to human IgG1-Fc domain (huCD40-Fc; R&D Systems 149-CD-50) (human, UniProt P25942 21-193).
T3 construct: extracellular domain; Bought reagent; also called human CD40-Fc; not shown: human IgG1-Fc domain
The assay is described as follows: SPR (Biacore 3000), immobilised huCD40-Fc, Langmuir (1:1) model, ka. As for the experimental part:
(§4) The kinetics of ch5D12 (PG100) and PG102 (I29L variant) binding to human CD40 were compared by surface plasmon resonance at a constant temperature of 25.0° C., using a Biacore 3000 instrument. Recombinant human CD40 extracellular domain fused to human IgG1-Fc domain (huCD40-Fc; R&D Systems catalogue number 149-CD-50) was used as the target antigen in these experiments. HuCD40-Fc (1 µg/mL in 10 mM acetate buffer, pH 5.0) was coupled via the amine groups of Lys residues to carbodiimide-activated Biacore CM5 chips, resulting in an antigen immobilization level of 127.4 RU. For kinetic analyses, dilution series of ch5D12 (PG100) and PG102 (range 10.0 µg/mL to 0.313 µg/mL) were prepared in Biacore Running Buffer (HEPES-buffered saline containing EDTA and surfactant; HBS-EP). Kinetic analyses were performed at a flow rate of 30 µL/min. Samples were allowed to bind for 4 min and to dissociate for 5 min, at the same flow rate. The chip surface was then regenerated for 30 seconds using 30 mM NaOH and a baseline re-established in HBS-EP for 2.5 min before injection of the next sample. […]
(§5) BIAcore control software (Version 3.2) was used for data collection and BIAevaluation software (Version 4.1) was used for analysis of kinetic data. Binding parameters were calculated using two different models of molecular interaction: a bivalent analyte model and Langmuir 1:1 binding model.

For assay [4], the target named is T3, Recombinant human CD40 extracellular …. Kind of assay: SPR (Biacore 3000), immobilised huCD40-Fc, bivalent binding (1:2) model, ka1. As for the experimental part:
as §4, §5
(In general: In SPR one partner is held on a chip, and binding of the other changes the refractive index at the surface.)

Assay [5] shares this target. The assay is described as follows: SPR (Biacore 3000), immobilised huCD40-Fc, Langmuir (1:1) model, kd. As for the experimental part:
as §4, §5

For assay [6], the target named is T1, human CD40. The assay is described as follows: cell-based or functional assay.
In assay [7] the target is T3, Recombinant human CD40 extracellular …. Kind of assay: SPR (Biacore 3000), immobilised huCD40-Fc, bivalent analyte model; the text value differs from the table's 5.29 × 10^-9 M; bivalent analyte model, not Langmuir. As for the experimental part:
as §4, §5

The target in assay [8] is T2, huCD40-muIg (Ancell, catalogue number …). Kind of assay: ELISA on coated human CD40-Fc (huCD40-muIg per methods); n=4. As for the experimental part: as §3, with “Plates were incubated for 1 h at 37° C. in a humid environment before washing 3 times with wash buffer and a further single wash with PBS.” left out
PNP substrate was prepared by adding 1 tablet p-Nitrophenyl Phosphate tablets (Sigma, catalogue number N-2765) in 15 mL PNP substrate buffer (12.1 g Tris, 5.84 g NaCl, 1.02 g MgCl_2.6H_2O in 1 L H_2O (adjusted to pH 9.6 with HCl). PNP substrate was added to assay plates at 100 μL/well. Plates were incubated for several minutes (max 30 min) at 37° C. to allow colour development before the reaction was stopped by addition of 3M NaOH. Colour intensity was determined at 405 nm using a micro plate reader (Biorad, model 550).
A general note: ELISA stands for enzyme-linked immunosorbent assay.

Assay [9] concerns the target T3, Recombinant human CD40 extracellular …. The assay is described as follows: SPR (Biacore 3000), immobilised huCD40-Fc, bivalent binding (1:2) model, kd1. As for the experimental part: as §4, §5
Assay [10] addresses T1, human CD40. The assay is described as follows: flow cytometry on JY cells; competitor 1 µg/mL PG102-PE; n=4. As for the experimental part:
as §1, §2

Assay [11] deals with T3, Recombinant human CD40 extracellular …. Kind of assay: SPR (Biacore 3000), immobilised huCD40-Fc, Langmuir (1:1) model. As for the experimental part: as §4, §5
For assay [12] the target is unchanged. Kind of assay: SPR (Biacore 3000), immobilised huCD40-Fc, bivalent binding (1:2) model. As for the experimental part: as §4, §5
For assay [13], the target named is T1, human CD40. Kind of assay: flow cytometry on JY cells; competitor 1 µg/mL ch5D12 (PG100)-PE; n=4. As for the experimental part:
as §1, §2

Values joined by “and” are separate entries in the source; they are usually repeats but may differ in a detail not shown here. Equal values may be shown once.

T3 sequence (P25942 21-193): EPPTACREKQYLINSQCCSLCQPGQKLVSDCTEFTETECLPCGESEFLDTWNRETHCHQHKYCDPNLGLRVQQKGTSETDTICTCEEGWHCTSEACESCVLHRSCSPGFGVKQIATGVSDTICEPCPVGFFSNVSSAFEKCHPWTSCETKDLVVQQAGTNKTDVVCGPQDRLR
T1 sequence (P25942 21-277): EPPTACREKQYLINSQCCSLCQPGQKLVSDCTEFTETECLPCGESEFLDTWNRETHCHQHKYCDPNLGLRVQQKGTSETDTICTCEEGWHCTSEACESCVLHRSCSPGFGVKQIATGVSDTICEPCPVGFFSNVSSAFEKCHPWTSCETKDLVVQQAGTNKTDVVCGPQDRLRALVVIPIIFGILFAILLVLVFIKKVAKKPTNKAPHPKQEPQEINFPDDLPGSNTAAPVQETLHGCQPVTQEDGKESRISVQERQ
T2 sequence (P25942 21-193): as the sequence (P25942 21-193) above

B1: ch5D12 (PG100) (antibody, V domains shown)
VH: QVKLEESGPGLVAPSQSLSITCTVSGFSLSRYSVYWVRQPPGKGLEWLGMMWGGGSTDYNSALKSRLSISKDTSKSQVFLKMNSLRTDDTAMYYCVRTDGDYWGQGTSVTVSS
VL: ELQLTQSPLSLPVSLGDQASISCRSSQSLVNSNGNTYLHWYLQKPGQSPKLLIYKVSNRFSGVPDRFSGSGSGTDFTLKISRVEAEDLGVYFCSQSTHVPWTFGGGTKLEIKR
notes: also called chimeric 5D12
By EC50 is commonly meant the concentration that produces a half-maximal response. The low end stands for a more potent agent, the high end for a less potent agent. A word on the kon: it is a measure of how fast the partners come together. Broadly, the koff is the rate constant with which the complex falls apart. With B1, the IC50 in the assay with human CD40 [1] is 0.02 µg/mL to 0.03 µg/mL (2×) and 0.13 nM to 0.2 nM (2×). Moreover, in [2], the half-maximal effective concentration (EC50) is about 0.03 µg/mL. In addition, the kon was found to be 1.88e+06 M⁻¹ s⁻¹ in assay [3] and 641000 M⁻¹ s⁻¹ in assay [4]. The koff in assay [5] was determined as 0.000507 s⁻¹; in assay [9], 0.0016 s⁻¹. Moreover, in the assay with human CD40 [6], the “-log IC50 for inhibition of IL-8 release by IFN-gamma-pulsed THP-1 cells co-cultured with Jurkat 39.8/50 cells” value is 8.28 -log10 (unit not printed). The results for the Kd in assay [7], in [11] and in assay [12] were 5.25 nM, 0.271 nM and 5.29 nM, respectively. Further, in assay [8], the “-log half-maximal binding concentration” value was 7.54 -log10 of g/ml (per caption: 7.45 ~ 35 ng/ml). For the same molecule, the “-log IC50” value with human CD40 [10] was 7.54 -log10 of g/mL (per p-0205: ~20-30 ng/mL); with human CD40 [13], 7.5 -log10 of g/mL (per p-0205: ~20-30 ng/mL).
